Biological target: T1, human recombinant serpinA3 inhibitor (R&D systems) (human, UniProt P01011 24-423)
T1 construct: alpha-1-antichymotrypsin (serpinA3), human, recombinant; also called a1-antichymotrypsin; ACT; source: bought: R&D Systems
T1 sequence (looked up): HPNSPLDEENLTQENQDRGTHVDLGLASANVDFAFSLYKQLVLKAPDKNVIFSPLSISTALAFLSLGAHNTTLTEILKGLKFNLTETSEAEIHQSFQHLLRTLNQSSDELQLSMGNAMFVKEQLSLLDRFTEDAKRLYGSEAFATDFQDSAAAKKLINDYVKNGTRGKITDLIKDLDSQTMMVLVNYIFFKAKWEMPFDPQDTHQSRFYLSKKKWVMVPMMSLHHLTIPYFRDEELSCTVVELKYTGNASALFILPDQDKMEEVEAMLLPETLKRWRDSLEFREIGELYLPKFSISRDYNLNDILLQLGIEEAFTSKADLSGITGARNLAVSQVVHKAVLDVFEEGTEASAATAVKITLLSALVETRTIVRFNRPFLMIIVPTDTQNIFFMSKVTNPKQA
Assay: ELISA; mat-KLK9 (0.5 μg) incubated alone or with recombinant serpinA3 at molar ratios KLK9/serpinA3 1/0.2, 1/0.5, 1/1 and 1/2 in 50 mM Tris-HCl pH 8.0, 1 h, 37 °C; the free KLK9 left was then measured by the sandwich ELISA (28ED436 / biotinylated 4ED28.2) as % recovery against the control without inhibitor
Details: both partners purified

binding result: binds
B1: mature form of KLK9 (mat-KLK9) (aa 23–250), recombinant (enzyme, human, UniProt Q9UKQ9 23-250, looked up)
chain: AIGAEECRPNSQPWQAGLFHLTRLFCGATLISDRWLLTAAHCRKPYLWVRLGEHHLWKWEGPEQLFRVTDFFPHPGFNKDLSANDHNDDIMLIRLPRQARLSPAVQPLNLSQTCVSPGMQCLISGWGAVSSPKALFPVTLQCANISILENKLCHWAYPGHISDSMLCAGLWEGGRGSCQGDSGGPLVCNGTLAGVVSGGAEPCSRPRRPAVYTSVCHYLDWIQEIMEN
notes: Human tissue kallikrein 9 (KLK9), UniProt Q9UKQ9 (KLK9_HUMAN); mature form aa 23-250 of the pre-pro-enzyme (1-250), lacking the signal peptide and the pro-segment; Glycosylated: migrates at ~42 kDa, ~25 kDa after PNGase F; also called mature KLK9; kallikrein 9
